Assay results: paper doi:10.1101/2021.07.05.451109 (bioRxiv, 2021)

Tests used:
[1] = molecular target: NLuc/CXCR4 (genome-edited, HEK293 cells) (human (endogenous in HEK293), UniProt P61073 1-352); assay: FRET or BRET
[2] = molecular target: NLuc/CXCR4 (genome-edited, HeLa cells) (human (endogenous in HeLa), UniProt P61073 1-352); assay: FRET or BRET
Chain of NLuc/CXCR4 (genome-edited, HeLa cells) (P61073 whole entry): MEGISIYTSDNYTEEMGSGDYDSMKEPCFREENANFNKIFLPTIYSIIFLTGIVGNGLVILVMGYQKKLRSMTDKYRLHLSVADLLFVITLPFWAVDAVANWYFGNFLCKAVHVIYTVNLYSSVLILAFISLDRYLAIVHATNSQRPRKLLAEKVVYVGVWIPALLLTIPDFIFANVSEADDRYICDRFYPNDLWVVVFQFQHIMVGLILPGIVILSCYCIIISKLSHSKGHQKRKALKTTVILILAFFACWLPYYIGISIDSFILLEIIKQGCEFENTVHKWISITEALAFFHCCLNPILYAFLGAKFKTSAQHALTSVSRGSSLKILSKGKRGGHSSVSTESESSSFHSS

Chain of NLuc/CXCR4 (genome-edited, HEK293 cells) (P61073 whole entry): as above

pKi [1]: 6.14 ± 0.3
pKi [2]: 6.15 ± 0.27
B1: 24Leu-CXCL17 (ligand)
chain: LNPGVARGHRDRGQASRRWLQEGGQECECKDWFLRAPRRKFMTVSGLPKKQCPCDHFKGNVKKTRHQRHHRKPNKHSRACQQFLKQCQLRSFALPL
